B1: Hairpin Ribozyme (parent)
chain: GUCCUCUUUCACGUGCGCGUGAAAGAGAGAAGUGAACCAGAGAAACACACGUUGUGGUAUAUUACCUGGUA

Variants of: B1
Test: self-cleavage, relative activity (ratio to wild type); higher = more cleavage; co-transcriptional
With C18U A44C the self-cleavage was 0.146. Variant G17C C48G has a self-cleavage of 0.165. In the case of G17U U55C, the self-cleavage is reported as 0.301. Work on G19A A61U yielded a self-cleavage of 0.147. Variant G19A A61G has a self-cleavage of 0.158. Work on G17C U53A yielded a self-cleavage of 0.936. Work on G17C U53C yielded a self-cleavage of 0.826. In the case of G17U A47G, the self-cleavage is reported as 0.15. C18G G68U gave a self-cleavage of 0.171. With G17U G21U the self-cleavage was 0.53. G17C G69A gave a self-cleavage of 0.404. Variant C18U U55G has a self-cleavage of 0.382. With G17C A22C the self-cleavage was 0.75. Variant G17U U70A has a self-cleavage of 0.95. Work on C18A C37U yielded a self-cleavage of 0.64. For G17A U55A, the self-cleavage was 0.0892. With G17A U55C the self-cleavage was 0.354. Work on C18A A59U yielded a self-cleavage of 0.242. Work on C18A A59G yielded a self-cleavage of 0.272. G19A C38G showed a self-cleavage of 0.159. C18A U52G showed a self-cleavage of 0.86. C18A U52A gave a self-cleavage of 1.07. In the case of G17U A64G, the self-cleavage is reported as 0.624. Work on C18U G34C yielded a self-cleavage of 1.44. G17A U67C gave a self-cleavage of 0.163. Work on G19A C50G yielded a self-cleavage of 0.247. With G19A C50U the self-cleavage was 0.401. With C18G G54A the self-cleavage was 0.51. With C18G G54U the self-cleavage was 0.449. With C18U G40U the self-cleavage was 0.244. C18U G40A gave a self-cleavage of 0.265. With C18G A31G the self-cleavage was 0.549. C18G A31U showed a self-cleavage of 0.165. In the case of G19A A64U, the self-cleavage is reported as 0.198. For G17U C66U, the self-cleavage was 0.537. G17U C66A showed a self-cleavage of 0.233. In the case of C18U G21A, the self-cleavage is reported as 0.833. C18U G21C showed a self-cleavage of 0.883. Variant C18U G21U has a self-cleavage of 0.814. With G17A G42C the self-cleavage was 0.367. For G17C A26C, the self-cleavage was 0.655. In the case of G17U G40U, the self-cleavage is reported as 0.181. Variant C18A U55C has a self-cleavage of 0.3. Variant C18G U62G has a self-cleavage of 0.163. With G17A G32A the self-cleavage was 0.105. Work on G17A C37G yielded a self-cleavage of 0.332. For C18G A59C, the self-cleavage was 0.224. G17U A41U showed a self-cleavage of 1.51. G19A A41C showed a self-cleavage of 1.13. Variant G17A U60A has a self-cleavage of 1.02. C18A G19A gave a self-cleavage of 0.886. C18A G25A showed a self-cleavage of 0.681. C18U U20G gave a self-cleavage of 1.13. Variant G17C A45C has a self-cleavage of 0.0898. G17A G29A showed a self-cleavage of 0.0893. In the case of G17A G29U, the self-cleavage is reported as 0.113. With C18A G68U the self-cleavage was 0.239. In the case of G17C U70G, the self-cleavage is reported as 0.807. G17C U70C showed a self-cleavage of 0.866. Variant G17C U70A has a self-cleavage of 0.862. C18G G69C showed a self-cleavage of 0.205. In the case of C18U U60A, the self-cleavage is reported as 0.883. C18G A22G gave a self-cleavage of 0.804. C18G A22C showed a self-cleavage of 0.79. In the case of C18G C65G, the self-cleavage is reported as 0.212. In the case of G17C A49G, the self-cleavage is reported as 0.409. C18G G25A showed a self-cleavage of 0.578. For C18U G19A, the self-cleavage was 1.08. C18G A61G gave a self-cleavage of 0.152. For C18G A61C, the self-cleavage was 0.201. Work on G17C A71U yielded a self-cleavage of 0.639. Variant C18A G32A has a self-cleavage of 0.169. With G17U G34A the self-cleavage was 1.24. Work on G17U G51C yielded a self-cleavage of 1.17. In the case of G17U G51A, the self-cleavage is reported as 0.946. Work on G17U A28G yielded a self-cleavage of 1.02. Work on G17A U33C yielded a self-cleavage of 0.113. G17A C50G showed a self-cleavage of 0.327. Work on G17C G68U yielded a self-cleavage of 0.181. G17A U70G gave a self-cleavage of 0.918. C18G A41G gave a self-cleavage of 0.555. Variant C18G A41U has a self-cleavage of 0.906. For C18G A43U, the self-cleavage was 0.0776. C18G A43C showed a self-cleavage of 0.122. With C18A A64C the self-cleavage was 0.19. Work on G17A C38G yielded a self-cleavage of 0.198. Work on C18A U62A yielded a self-cleavage of 0.204. In the case of C18A U62G, the self-cleavage is reported as 0.138. Variant C18A U62C has a self-cleavage of 0.22. Variant C18A U53G has a self-cleavage of 0.891. In the case of C18A U53A, the self-cleavage is reported as 1.02. For C18A U20A, the self-cleavage was 0.917. Variant C18A U20G has a self-cleavage of 0.946. With G19A A59U the self-cleavage was 0.0875. With C18G C66G the self-cleavage was 0.19. C18G C66U gave a self-cleavage of 0.479. For G17A U20G, the self-cleavage was 0.492. Work on G17A U20A yielded a self-cleavage of 0.759. For G17C A30C, the self-cleavage was 0.099. Work on C18A C46A yielded a self-cleavage of 0.231. Work on C18A C46U yielded a self-cleavage of 0.1. C18A C50U gave a self-cleavage of 0.428. For C18A C50A, the self-cleavage was 0.314. C18A G69A showed a self-cleavage of 0.455. For G17A U63C, the self-cleavage was 0.181. With G17A U63G the self-cleavage was 0.29. Variant G17U A59C has a self-cleavage of 0.0796. With C18U A31G the self-cleavage was 0.721. C18U A31C gave a self-cleavage of 0.0854. With C18U A31U the self-cleavage was 0.112. G17C U58C gave a self-cleavage of 0.825. C18G U55G gave a self-cleavage of 0.311. For C18A A43G, the self-cleavage was 0.085. C18U C66G gave a self-cleavage of 0.202. G17C G29U gave a self-cleavage of 0.134. Variant C18A A41C has a self-cleavage of 1.21. C18A A47C showed a self-cleavage of 0.424. Variant G17U G54C has a self-cleavage of 0.413. In the case of G17U A36U, the self-cleavage is reported as 0.483. G17C A39G gave a self-cleavage of 0.217. Work on C18U C65U yielded a self-cleavage of 0.373. For C18G G27C, the self-cleavage was 0.0884. G17U gave a self-cleavage of 0.961. G17C showed a self-cleavage of 0.751. Work on C18U C38G yielded a self-cleavage of 0.158. With C18U C46U the self-cleavage was 0.195. Work on C18G A45C yielded a self-cleavage of 0.152. With C18U A47U the self-cleavage was 0.178. In the case of G17C G57C, the self-cleavage is reported as 0.206. In the case of G17A G21C, the self-cleavage is reported as 0.834. Variant C18U U53A has a self-cleavage of 1. For C18U U53G, the self-cleavage was 0.644. In the case of C18G U20A, the self-cleavage is reported as 0.772. Variant C18A A44G has a self-cleavage of 0.199. For C18A A44U, the self-cleavage was 0.105. In the case of G17C A41G, the self-cleavage is reported as 0.591. Work on G17U G42A yielded a self-cleavage of 0.152. For G17U G42U, the self-cleavage was 0.343. Variant G17C U67A has a self-cleavage of 0.227. With G17U A26G the self-cleavage was 0.812. G19A A71G gave a self-cleavage of 0.857. Variant G19A A71U has a self-cleavage of 0.648. Variant G17U C38U has a self-cleavage of 0.519. Variant C18U A61C has a self-cleavage of 0.17. Variant C18U A61U has a self-cleavage of 0.22. For G17A G40A, the self-cleavage was 0.185. C18U A43U showed a self-cleavage of 0.102. Work on G19A A47U yielded a self-cleavage of 0.144. With G17U A30U the self-cleavage was 0.116. Work on G17U A30C yielded a self-cleavage of 0.176. Variant C18U A49G has a self-cleavage of 0.567. Work on C18U A49C yielded a self-cleavage of 0.193. C18U U62G showed a self-cleavage of 0.0807. G17U A24G showed a self-cleavage of 0.766. For G17C U62C, the self-cleavage was 0.233. With G17U A71G the self-cleavage was 1.1. For C18G G56A, the self-cleavage was 0.14. With C18G G56C the self-cleavage was 0.176. Variant C18G A64U has a self-cleavage of 0.18. In the case of C18G A64G, the self-cleavage is reported as 0.463. C18G A64C showed a self-cleavage of 0.158. In the case of G19A A43C, the self-cleavage is reported as 0.15. Variant G17U A39U has a self-cleavage of 0.337. G17U A39C gave a self-cleavage of 0.479. G19A A39U showed a self-cleavage of 0.404. For G19A A45U, the self-cleavage was 0.1. With G19A A24C the self-cleavage was 0.615.
